Experimental data as given in PMC6351033.

Target: CXCR3 chemotactic receptor (human (endogenous in PBMC)) (UniProt P49682)
Sequence of UniProt P49682 (P49682 whole entry): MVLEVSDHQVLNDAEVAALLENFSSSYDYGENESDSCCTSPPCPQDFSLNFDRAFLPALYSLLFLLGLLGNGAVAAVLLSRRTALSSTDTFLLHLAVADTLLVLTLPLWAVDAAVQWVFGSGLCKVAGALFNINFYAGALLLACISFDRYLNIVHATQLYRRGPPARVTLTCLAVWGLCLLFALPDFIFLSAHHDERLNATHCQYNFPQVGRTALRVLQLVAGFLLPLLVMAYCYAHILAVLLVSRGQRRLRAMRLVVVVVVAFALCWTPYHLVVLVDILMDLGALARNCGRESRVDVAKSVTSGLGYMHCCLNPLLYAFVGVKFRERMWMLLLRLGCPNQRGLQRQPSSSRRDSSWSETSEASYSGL

## Tag7-Mts1 complex (from UniProt O75594 22-196; P26447 1-101)
  chemotaxis of PBMC (Boyden chamber, Tag7-Mts1 at 10^-9 M) after preincubation of the cells with antibodies to CXCR3; reduction of migration: < 20%
